According to article PMC4826039:

Molecular target: bovine brain tubulin (alpha-beta heterodimer), polymerized into taxol-stabilized microtubules (bovine) (UniProt Q6B856)
Experiment: negative stain electron microscopy

percent of microtubules with rings	Substance
< 10%	KLP10A MD K350A (from UniProt Q960Z0 279-615) (domain or fragment)
< 10%	KLP10A MD K399A (from UniProt Q960Z0 279-615) (domain or fragment)
